From IntAct's records for PubMed 23084749

B1: Protein deacetylase HDAC6 (Homo sapiens), Q9UBN7 (parent)
chain: MTSTGQDSTTTRQRRSRQNPQSPPQDSSVTSKRNIKKGAVPRSIPNLAEVKKKGKMKKLGQAMEEDLIVGLQGMDLNLEAEALAGTGLVLDEQLNEFHCLWDDSFPEGPERLHAIKEQLIQEGLLDRCVSFQARFAEKEELMLVHSLEYIDLMETTQYMNEGELRVLADTYDSVYLHPNSYSCACLASGSVLRLVDAVLGAEIRNGMAIIRPPGHHAQHSLMDGYCMFNHVAVAARYAQQKHRIRRVLIVDWDVHHGQGTQFTFDQDPSVLYFSIHRYEQGRFWPHLKASNWSTTGFGQGQGYTINVPWNQVGMRDADYIAAFLHVLLPVALEFQPQLVLVAAGFDALQGDPKGEMAATPAGFAQLTHLLMGLAGGKLILSLEGGYNLRALAEGVSASLHTLLGDPCPMLESPGAPCRSAQASVSCALEALEPFWEVLVRSTETVERDNMEEDNVEESEEEGPWEPPVLPILTWPVLQSRTGLVYDQNMMNHCNLWDSHHPEVPQRILRIMCRLEELGLAGRCLTLTPRPATEAELLTCHSAEYVGHLRATEKMKTRELHRESSNFDSIYICPSTFACAQLATGAACRLVEAVLSGEVLNGAAVVRPPGHHAEQDAACGFCFFNSVAVAARHAQTISGHALRILIVDWDVHHGNGTQHMFEDDPSVLYVSLHRYDHGTFFPMGDEGASSQIGRAAGTGFTVNVAWNGPRMGDADYLAAWHRLVLPIAYEFNPELVLVSAGFDAARGDPLGGCQVSPEGYAHLTHLLMGLASGRIILILEGGYNLTSISESMAACTRSLLGDPPPLLTLPRPPLSGALASITETIQVHRRYWRSLRVMKVEDREGPSSSKLVTKKAPQPAKPRLAERMTTREKKVLEAGMGKVTSASFGEESTPGQTNSETAVVALTQDQPSEAATGGATLAQTISEAAIGGAMLGQTTSEEAVGGATPDQTTSEETVGGAILDQTTSEDAVGGATLGQTTSEEAVGGATLAQTTSEAAMEGATLDQTTSEEAPGGTELIQTPLASSTDHQTPPTSPVQGTTPQISPSTLIGSLRTLELGSESQGASESQAPGEENLLGEAAGGQDMADSMLMQGSRGLTDQAIFYAVTPLPWCPHLVAVCPIPAAGLDVTQPCGDCGTIQENWVCLSCYQVYCGRYINGHMLQHHGNSGHPLVLSYIDLSAWCYYCQAYVHHQALLDVKNIAHQNKFGEDMPHPH
partner: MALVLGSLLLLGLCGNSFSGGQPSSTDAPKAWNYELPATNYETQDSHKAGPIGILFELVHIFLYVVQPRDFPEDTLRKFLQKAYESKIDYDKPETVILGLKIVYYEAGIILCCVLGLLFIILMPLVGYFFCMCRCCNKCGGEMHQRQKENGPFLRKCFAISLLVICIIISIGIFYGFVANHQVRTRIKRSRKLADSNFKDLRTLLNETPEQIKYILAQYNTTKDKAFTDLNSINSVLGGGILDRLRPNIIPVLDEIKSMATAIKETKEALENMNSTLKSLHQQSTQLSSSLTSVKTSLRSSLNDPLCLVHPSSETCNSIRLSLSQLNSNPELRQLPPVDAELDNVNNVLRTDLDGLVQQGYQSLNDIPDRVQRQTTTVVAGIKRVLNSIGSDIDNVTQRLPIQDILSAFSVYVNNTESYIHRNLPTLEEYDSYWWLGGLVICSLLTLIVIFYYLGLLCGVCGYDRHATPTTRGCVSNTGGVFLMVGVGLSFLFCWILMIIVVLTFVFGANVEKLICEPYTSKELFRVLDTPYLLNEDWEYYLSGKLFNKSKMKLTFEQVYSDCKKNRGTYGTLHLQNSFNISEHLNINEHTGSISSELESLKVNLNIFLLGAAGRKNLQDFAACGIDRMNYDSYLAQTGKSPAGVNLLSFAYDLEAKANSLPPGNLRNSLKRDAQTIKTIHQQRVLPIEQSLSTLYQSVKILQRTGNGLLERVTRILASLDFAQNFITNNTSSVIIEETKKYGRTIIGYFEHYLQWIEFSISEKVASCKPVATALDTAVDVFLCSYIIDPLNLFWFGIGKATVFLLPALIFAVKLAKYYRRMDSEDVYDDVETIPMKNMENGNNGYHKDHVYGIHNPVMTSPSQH

Variants of: B1
Details: with prom1_human PROM1, O43490

| effect of a mutation on the interaction | Variant |
| --- | --- |
| disrupting interaction strength | Y570E |
| with no effect | Y570A |
| with no effect | S568A |
| disrupting interaction strength | S568E |
| with no effect | H216A;H611A |
